# Reference: article PMC3745347, “Interaction of Glucocorticoid Receptor (GR) with Estrogen Receptor (ER) α and Activator Protein 1 (AP1) in Dexamethasone-mediated Interference of ERα Activity*” (The Journal of Biological Chemistry, 2013)
# T1: baculovirus expressed full-length human GR (human, UniProt P04150 1-777)
# T1 construct: human glucocorticoid receptor, full length, baculovirus-expressed; source: produced in baculovirus, bought: Invitrogen, partially purified
# T1 sequence (looked up): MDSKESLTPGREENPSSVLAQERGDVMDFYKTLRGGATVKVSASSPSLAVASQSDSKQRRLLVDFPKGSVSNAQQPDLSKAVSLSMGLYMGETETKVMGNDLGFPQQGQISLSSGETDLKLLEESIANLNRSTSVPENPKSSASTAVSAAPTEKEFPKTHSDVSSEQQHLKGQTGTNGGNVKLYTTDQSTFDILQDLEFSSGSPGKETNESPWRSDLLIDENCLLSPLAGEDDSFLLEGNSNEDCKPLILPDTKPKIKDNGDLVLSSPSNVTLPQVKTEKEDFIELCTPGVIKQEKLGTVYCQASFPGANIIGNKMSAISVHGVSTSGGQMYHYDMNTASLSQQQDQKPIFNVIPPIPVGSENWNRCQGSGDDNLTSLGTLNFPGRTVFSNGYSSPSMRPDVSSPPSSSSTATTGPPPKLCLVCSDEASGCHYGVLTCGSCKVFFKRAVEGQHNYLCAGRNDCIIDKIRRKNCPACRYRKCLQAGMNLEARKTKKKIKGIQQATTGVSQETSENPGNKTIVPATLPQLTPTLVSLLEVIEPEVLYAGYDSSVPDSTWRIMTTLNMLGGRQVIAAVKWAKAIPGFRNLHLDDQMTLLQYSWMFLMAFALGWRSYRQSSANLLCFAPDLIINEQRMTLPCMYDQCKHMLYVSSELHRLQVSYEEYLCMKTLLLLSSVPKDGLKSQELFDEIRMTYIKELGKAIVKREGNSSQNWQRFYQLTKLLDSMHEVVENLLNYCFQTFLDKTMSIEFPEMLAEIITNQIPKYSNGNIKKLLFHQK
# Target: T1, baculovirus expressed full-length human …
# Assay: pull-down; GST-ERα proteins on glutathione beads incubated with baculovirus-expressed, partially purified human GR; 50 mM Tris pH 8.0, 5 mM EDTA, 150 mM NaCl, 0.5% Nonidet P-40, 1 h at 4 °C; washes with up to 500 mM NaCl; blot for GR
# Details: both partners purified
binder,measurement,value
"GST-ERα-N (aa 1-250) (domain or fragment, human, UniProt P03372 1-250, looked up, estrogen receptor alpha, residues 1-250 (N-terminal region: AF1 and DBD); Made in pGEX-6P1; the species of the GST construct itself is not separately stated; also called N-terminal half of ERα) MTMTLHTKASGMALLHQIQGNELEPLNRPQLKIPLERPLGEVYLDSSKPAVYNYPEGAAYEFNAAAAANAQVYGQTGLPYGPGSEAAAFGSNGLGGFPPLNSVSPSPLMLLHPPPQLSPFLQPHGQQVPYYLENEPSGYTVREAGPPAFYRPNSDNRRQGGRERLASTNDKGSMAMESAKETRYCAVCNDYASGYHYGVWSCEGCKAFFKRSIQGHNDYMCPATNQCTIDKNRRKSCQACRLRKCYEVGM",binding result,binds
